In patent US20120230976:

Target: mixture of gliadins (SIGMA Cat. No. G3375)

B1: neprilysin from Rothia mucilaginosa ATCC 25296 (RefSeq ZP_05367591) (protein)
chain: MTTNSGITKEWVDETVKPGDDFFRHVNGKWLATHEIPADRPKDGGLYTLRDNAEKHVRELVEKIAKEQPESRIGALYNSFMDVEKIEADGLEPLLKEIAPILNSATPSHLAVTLALLSRAGLPQLFAWYTSNDPKDPKNYTFFLYQSGLGLPDESYYREEKHEAACAAYVEHIARMFQLTGLAEGFGLTPEQAAQLVFTHESELARLHWNVVENRDAEATYNPYQATELDEKFPGFPFSQWLLALGADPETLGQVIVAQPSFFEGAAKLFTSIPLMSWKLWAVWTVLRSRAPFMYDELVQESFNFYGKTLSGTQQIRERWKRGVGAVEKALGEEIGQEYVAVHFPPSHKEKMLVLVGNLLEAYRESIESLDWMTEATRQKALEKLSKFVTKIGYPDKWRDFSALELVPGDLFENLRRTGAFDADWLIARKGQPVDKAEWLMTPQTVNAYYMPPANEIVFPAAILQPPYFNPDADDAANYGNIGMIIGHEIGHGFDDQGSRYDGDGKLESWWTEEDYAKFKERTAALVEQYNAYVPVGLDPKFHVNGELTLGENIGDLAGMSIALKAYRLALKKQGIESLADAPVIDGMTGIQRFFFSNARGWCTKSRPQHAEVMISVDPHSPDEFRVNGVVRNIDEFYEAFGVSEGDALYLAPEERVRIW
With B1 the “gliadin zymography (proteolytic activity)” value was “The clear bands observed in the zymogram gel confirmed proteolytic activity towards gliadin”.
